In one assay the target is T1, human GC-A (Homo sapiens, UniProt P16066).
T1 construct: expressed in transfected cells
T1 sequence (P16066 33-1061): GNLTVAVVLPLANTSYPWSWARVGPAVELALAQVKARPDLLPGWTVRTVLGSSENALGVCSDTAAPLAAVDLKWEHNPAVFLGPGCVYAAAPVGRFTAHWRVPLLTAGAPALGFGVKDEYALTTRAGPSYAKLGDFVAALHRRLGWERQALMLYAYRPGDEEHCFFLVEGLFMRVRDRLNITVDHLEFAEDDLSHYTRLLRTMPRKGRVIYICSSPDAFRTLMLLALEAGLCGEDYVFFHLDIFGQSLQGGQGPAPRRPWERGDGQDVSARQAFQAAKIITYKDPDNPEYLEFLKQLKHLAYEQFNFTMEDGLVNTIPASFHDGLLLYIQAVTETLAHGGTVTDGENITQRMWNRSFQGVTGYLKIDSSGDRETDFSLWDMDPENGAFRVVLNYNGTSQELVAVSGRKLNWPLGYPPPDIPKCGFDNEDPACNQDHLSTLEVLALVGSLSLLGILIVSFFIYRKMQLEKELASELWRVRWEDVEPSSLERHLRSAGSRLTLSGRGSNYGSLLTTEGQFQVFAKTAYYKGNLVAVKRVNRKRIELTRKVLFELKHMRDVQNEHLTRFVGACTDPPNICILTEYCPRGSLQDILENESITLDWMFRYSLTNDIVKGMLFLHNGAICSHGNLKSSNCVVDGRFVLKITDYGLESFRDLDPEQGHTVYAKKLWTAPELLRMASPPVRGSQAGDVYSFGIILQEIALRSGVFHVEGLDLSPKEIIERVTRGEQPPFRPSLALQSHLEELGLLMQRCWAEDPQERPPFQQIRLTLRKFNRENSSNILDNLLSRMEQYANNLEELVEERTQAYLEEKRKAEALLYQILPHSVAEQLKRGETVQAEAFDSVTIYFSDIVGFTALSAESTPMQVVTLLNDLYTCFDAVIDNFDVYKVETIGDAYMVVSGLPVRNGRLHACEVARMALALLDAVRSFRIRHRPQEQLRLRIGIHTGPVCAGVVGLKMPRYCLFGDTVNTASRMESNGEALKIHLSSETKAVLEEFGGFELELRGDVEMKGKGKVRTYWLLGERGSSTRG
The experiment in a line: NP/GC-A/cGMP potency assay (Example 1): cGMP production in HEK293 cells overexpressing human GC-A. The assay is classed as cell-based.

In a further assay the target is T2, human pGC-B (Homo sapiens, UniProt P20594).
T2 construct: expressed in transfected cells
T2 sequence (P20594 23-1047): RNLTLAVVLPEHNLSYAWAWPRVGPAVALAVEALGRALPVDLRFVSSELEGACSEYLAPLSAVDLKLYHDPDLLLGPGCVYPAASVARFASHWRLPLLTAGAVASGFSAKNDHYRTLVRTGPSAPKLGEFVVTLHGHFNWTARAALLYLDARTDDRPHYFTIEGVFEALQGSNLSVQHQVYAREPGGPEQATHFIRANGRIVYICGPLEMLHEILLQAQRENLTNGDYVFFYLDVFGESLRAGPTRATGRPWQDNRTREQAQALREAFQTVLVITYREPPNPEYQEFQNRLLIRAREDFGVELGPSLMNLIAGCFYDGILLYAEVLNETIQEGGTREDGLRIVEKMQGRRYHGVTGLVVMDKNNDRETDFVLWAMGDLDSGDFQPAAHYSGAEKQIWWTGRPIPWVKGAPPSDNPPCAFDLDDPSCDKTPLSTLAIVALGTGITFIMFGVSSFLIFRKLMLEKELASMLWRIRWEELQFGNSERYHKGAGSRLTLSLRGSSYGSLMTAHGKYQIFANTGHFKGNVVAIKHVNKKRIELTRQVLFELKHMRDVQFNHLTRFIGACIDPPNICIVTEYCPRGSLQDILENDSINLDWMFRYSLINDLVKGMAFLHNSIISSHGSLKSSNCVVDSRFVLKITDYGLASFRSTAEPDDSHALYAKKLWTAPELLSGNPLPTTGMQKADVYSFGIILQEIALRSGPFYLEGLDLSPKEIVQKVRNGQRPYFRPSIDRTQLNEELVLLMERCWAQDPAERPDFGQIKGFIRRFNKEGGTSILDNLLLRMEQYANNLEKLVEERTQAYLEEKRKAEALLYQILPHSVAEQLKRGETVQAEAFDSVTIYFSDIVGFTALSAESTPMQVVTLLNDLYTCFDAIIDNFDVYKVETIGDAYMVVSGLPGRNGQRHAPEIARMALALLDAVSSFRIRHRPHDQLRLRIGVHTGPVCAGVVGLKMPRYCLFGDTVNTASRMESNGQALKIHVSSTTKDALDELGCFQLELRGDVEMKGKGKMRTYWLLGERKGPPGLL
As to the kind of experiment: NP/pGC-B/cGMP potency assay (Example 5), HEK293 cells overexpressing human pGC-B. The assay is classed as cell-based. The settings on record: ADHF plasma. How it is done:
(§1) In vitro Cell Culture: HEK 293 cells were stably transfected with human pGC-A or pGC-B using LIPOFECTAMINE™ (Invitrogen, Grand Island, NY) (Chen et al. 2020, supra). Transfected cells (HEK/GC-A or (HEK/GC-B) were maintained in DMEM supplemented with 10% FBS and 250 μg/ml G418. Cells in 48-well plates were grown to 80-90% confluency and then incubated in Hanks Balanced Salt Solution (HBSS, Invitrogen) containing 20 mM HEPES, 0.1% BSA, and 0.5 mM 3-isobutyl-1-methylxanthine (IBMX, Sigma).
NP/pGC-B/cGMP Potency Assay: Human plasma samples from patients with ADHF (N=6) were utilized. Stably transfected HEK293 cells engineered to overexpress human pGC-B were cultured (as described above) and grown in 48-well plates to 80-90% confluence. On the day of the experiment, human plasma was diluted 10× with HBSS. Diluted plasma (250 μl) was added together with vehicle (PBS), native CNP (an endogenous pGC-B activator), C53 (a designer CNP analog/pGC-B activator) or CRRL-408 (a designer dual pGC-A and pGC-B activator) at doses of 10^−10, 10^−8, or 10^−7 M to the HEK/GC-B cells and incubated for 10 minutes at 37° C. Afterwards, cells were washed once with PBS and lysed with 0.1M HCl. cGMP was then assayed using an ELISA (Enzo Life Sciences) as described elsewhere (Chen et al. 2018, supra).

For assay [1], the target named is human pGC-A receptor (human) (UniProt P16066). The experiment in a line: cell-based or functional assay.
The target of another assay is T3, human pGC-A (Homo sapiens, UniProt P16066).
T3 construct: expressed in transfected cells
T3 sequence (P16066 33-1061): T1 sequence (P16066 33-1061)
The experiment in a line: NP/pGC-A/cGMP potency assay (Example 5), HEK293 cells overexpressing human pGC-A. The assay is classed as cell-based. The protocol: as §1
NP/pGC-A/cGMP Potency Assay: Human plasma samples from patients with HT (N=6), ADHF (N=6), and CKD (N=5) were utilized. Stably transfected HEK293 cells engineered to overexpress human pGC-A were cultured (as described above) and were grown in 48-well plates to 80-90% confluence. On the day of the experiment, human plasma was diluted 10× with HBSS. […] Afterwards, the cells were washed once with PBS and lysed with 0.1M HCl. cGMP was then assayed using an ELISA (Enzo Life Sciences) as described elsewhere (Chen et al. 2018, supra).

Protocol for human GC-A: Transfected cells (HEK/GCA) were maintained in Dulbecco Modified Eagle medium (DMEM) supplemented with 10% FBS, and 250 μg/ml G418. Cells in 48-well plates were grown to 80-90% confluency and then incubated in Hanks Balanced Salt Solution (HBSS, Invitrogen) containing 20 mM HEPES, 0.1% BSA and 0.5 mM 3-isobutyl-1-methylxanthine (IBMX, Sigma).
A stable transfected cell line of HEK293 cells engineered to overexpress human GC-A was grown in 48-well plates to 80-90% confluency. […] Studies were repeated with human plasma with or without addition of the designer GC-A activator, MANP, at doses of 10^−10 M and 10^−8 M.

Take “B-type natriuretic peptide [BNP, reference compound]”: the “mean cGMP level” value is 6.9 ± 0.9 pmol/mL in the assay with human GC-A (synthetic peptide alone, concentrations corresponding to ADHF deficient ANP and BNP plasma (ANP 16.8, BNP 47.4 pg/mL), 10 min); 80.3 ± 16.9 pmol/mL in the assay with human GC-A (synthetic peptide alone, concentrations corresponding to ADHF elevated ANP and BNP plasma (ANP 350, BNP 1225.7 pg/mL), 10 min); 4.7 ± 0.4 pmol/mL with human GC-A (synthetic peptide alone, concentrations mimicking healthy subject plasma (ANP 25.5, BNP 27 pg/mL), 10 min).

In the case of “C53: designer pGC-B activator, 53 amino acid intermediate form of CNP (SEQ ID NO:5) (DLRVDTKSRAAWARLLQEHPNARKYKGANKKGLSKGCFGLKLDRIGSMSGLGC)”, the cGMP levels entry in the assay with human pGC-B (dose 10^-8 M) is on record as “markedly potentiated”; in the assay with human pGC-B (dose 10^-10 M (in a single patient)), “modestly potentiated”.

For “C-type natriuretic peptide [CNP, reference compound]”, the cGMP levels result with human pGC-B (dose 10^-8 M) is recorded as “markedly potentiated”.

As for “MANP (designer pGC-A activator) (peptide)”, in assay [1], the cGMP in HEK293 cells overexpressing human GC-A; plasma of ADHF patients with elevated ANP and BNP plus 10^-8 M MANP is 201 pmol/mL; the cGMP in HEK293 cells overexpressing human GC-A; plasma of ADHF patients with elevated ANP and BNP plus 10^-10 M MANP came out at 60.4 pmol/mL.

As for “MANP: designer pGC-A activator, polypeptide SLRRSSCFGGRMDRIGAQSGLGCNSFRYRITAREDKQGWA (SEQ ID NO:1)”, the “mean cGMP level” value with human GC-A (healthy plasma + 10^-8 M MANP) was found to be 167 ± 14.1 pmol/mL; with human GC-A (healthy plasma + 10^-10 M MANP) it was 45 ± 5.5 pmol/mL; in the assay with human GC-A (plasma of deficient ANP and BNP ADHF patients + 10^-8 M MANP) it was 166.9 ± 9.1 pmol/mL; with human GC-A (plasma of deficient ANP and BNP ADHF patients + 10^-10 M MANP) it was 33.8 ± 1.4 pmol/mL; in the assay with human GC-A (plasma of elevated ANP and BNP ADHF patients + 10^-8 M MANP), 200.8 ± 5.4 pmol/mL; with human GC-A (plasma of elevated ANP and BNP ADHF patients + 10^-10 M MANP), 60.4 ± 9.7 pmol/mL. Also, the cGMP levels result in the assay with human pGC-A (ADHF plasma, dose 10^-8 M) is listed as “markedly potentiated”; with human pGC-A (ADHF plasma, dose 10^-10 M), “modestly potentiated”; with human pGC-A (CKD plasma, dose 10^-8 M), “markedly potentiated”; with human pGC-A (CKD plasma, dose 10^-10 M), “modestly potentiated”; with human pGC-A (HT plasma, dose 10^-8 M), “markedly potentiated”; with human pGC-A (HT plasma, dose 10^-10 M) it was “modestly potentiated”.

Take “synthetic human BNP (from UniProt P16860 103-134) (ligand)”: in assay [1], the cGMP in HEK293 cells overexpressing human GC-A; synthetic BNP at the level of ADHF plasma with elevated ANP and BNP (1225.7 pg/mL) was determined as 80.3 pmol/mL; the mean cGMP in HEK293 cells overexpressing human GC-A; synthetic BNP at 27 pg/mL (level of healthy plasma) was found to be 4.7 pmol/mL; the mean cGMP in HEK293 cells overexpressing human GC-A; synthetic BNP at the level of ANP and BNP deficient ADHF plasma (47.4 pg/mL) amounted to 6.9 pmol/mL.
